According to US20090280138A1 (OXFORD BIOMEDICA UK, published 2009):

Assays:
[1] = biological target: T1, MHC class I molecule HLA-A*0301 (iTopia plate-bound monomer) (biotin (bound to streptavidin-coated plate)); assay: iTopia off-rate assay, 37 C; fit R^2 0.9
T1 construct: also called A3
Experimental: (§1) The 9 mers were tested for Peptide Binding, Off Rate and Affinity using iTopia Epitope Discovery System in accordance with the manufacturer's instructions. Briefly, 96 well microtitre plates coated with MHC molecules representing different MHC alleles are used to identify candidate peptides. […] Determinations are performed in duplicate using an ELISA plate reader and included allele specific positive controls.
(§2) A one-phase exponential decay curve, with a plateau given equal to 0, was generated using GraphPad Prism® software, which calculated the t1/2 and goodness-of-fit, as measured by r², for each peptide.

[2] = biological target: T2, MHC class I molecule HLA-A*0201 (iTopia plate-bound monomer) (biotin (bound to streptavidin-coated plate)); assay: iTopia off-rate assay, 37 C; fit R^2 0.57
T2 construct: also called A2
Experimental: as §1, §2

[3] = biological target: T3, MHC class I molecule HLA-B*0702 (iTopia plate-bound monomer) (biotin (bound to streptavidin-coated plate)); assay: iTopia off-rate assay, 37 C; fit R^2 0.79
T3 construct: Commercial iTopia system; also called B7
Experimental: as §1, §2

[4] = biological target: T2, MHC class I molecule HLA-A*0201 (iTopia …); assay: iTopia off-rate assay, 37 C; fit R^2 0.05
Experimental: as §1, §2

[5] = biological target: T2, MHC class I molecule HLA-A*0201 (iTopia …); assay: iTopia off-rate assay, 37 C; fit R^2 0.6
Experimental: as §1, §2

[6] = biological target: T2, MHC class I molecule HLA-A*0201 (iTopia …); assay: iTopia off-rate assay, 37 C; fit R^2 0.68
Experimental: as §1, §2

[7] = biological target: T2, MHC class I molecule HLA-A*0201 (iTopia …); assay: iTopia off-rate assay, 37 C; fit R^2 0.74
Experimental: as §1, §2

[8] = biological target: T1, MHC class I molecule HLA-A*0301 (iTopia …); assay: iTopia off-rate assay, 37 C; fit R^2 0.88
Experimental: as §1, §2

[9] = biological target: T4, MHC class I molecule HLA-A*0101 (iTopia plate-bound monomer) (biotin (bound to streptavidin-coated plate)); assay: iTopia off-rate assay, 37 C; fit R^2 0.97
T4 construct: also called A1
Experimental: as §1, §2

[10] = biological target: T3, MHC class I molecule HLA-B*0702 (iTopia …); assay: iTopia off-rate assay, 37 C; fit R^2 0.36
Experimental: as §1, §2

[11] = biological target: T3, MHC class I molecule HLA-B*0702 (iTopia …); assay: iTopia off-rate assay, 37 C; fit R^2 0.22
Experimental: as §1, §2

[12] = biological target: T2, MHC class I molecule HLA-A*0201 (iTopia …); assay: iTopia off-rate assay, 37 C; fit R^2 0.66
Experimental: as §1, §2

[13] = biological target: T3, MHC class I molecule HLA-B*0702 (iTopia …); assay: iTopia off-rate assay, 37 C; fit R^2 0.15
Experimental: as §1, §2

[14] = biological target: T2, MHC class I molecule HLA-A*0201 (iTopia …); assay: iTopia off-rate assay, 37 C; fit R^2 0.59
Experimental: as §1, §2

[15] = biological target: T3, MHC class I molecule HLA-B*0702 (iTopia …); assay: iTopia off-rate assay, 37 C; fit R^2 0.66
Experimental: as §1, §2

[16] = biological target: T1, MHC class I molecule HLA-A*0301 (iTopia …); assay: iTopia off-rate assay, 37 C; fit R^2 0.95
Experimental: as §1, §2

[17] = biological target: T3, MHC class I molecule HLA-B*0702 (iTopia …); assay: iTopia off-rate assay, 37 C; fit R^2 0.23
Experimental: as §1, §2

[18] = biological target: T2, MHC class I molecule HLA-A*0201 (iTopia …); assay: iTopia off-rate assay, 37 C; fit R^2 0.65
Experimental: as §1, §2

[19] = biological target: T4, MHC class I molecule HLA-A*0101 (iTopia …); assay: iTopia off-rate assay, 37 C; fit R^2 0.88
Experimental: as §1, §2

[20] = biological target: T2, MHC class I molecule HLA-A*0201 (iTopia …); assay: iTopia off-rate assay, 37 C; fit R^2 0.95
Experimental: as §1, §2

[21] = biological target: T3, MHC class I molecule HLA-B*0702 (iTopia …); assay: iTopia off-rate assay, 37 C; fit R^2 0.02
Experimental: as §1, §2

[22] = biological target: T2, MHC class I molecule HLA-A*0201 (iTopia …); assay: iTopia off-rate assay, 37 C; fit R^2 0.67
Experimental: as §1, §2

[23] = biological target: T4, MHC class I molecule HLA-A*0101 (iTopia …); assay: iTopia off-rate assay, 37 C; fit R^2 0.87
Experimental: as §1, §2

[24] = biological target: T2, MHC class I molecule HLA-A*0201 (iTopia …); assay: iTopia off-rate assay, 37 C; fit R^2 0.91
Experimental: as §1, §2

[25] = biological target: T2, MHC class I molecule HLA-A*0201 (iTopia …); assay: iTopia off-rate assay, 37 C; fit R^2 0.63
Experimental: as §1, §2

[26] = biological target: T3, MHC class I molecule HLA-B*0702 (iTopia …); assay: iTopia off-rate assay, 37 C; fit R^2 0.84
Experimental: as §1, §2

[27] = biological target: T2, MHC class I molecule HLA-A*0201 (iTopia …); assay: iTopia off-rate assay, 37 C; fit R^2 0.9
Experimental: as §1, §2

[28] = biological target: T1, MHC class I molecule HLA-A*0301 (iTopia …); assay: iTopia off-rate assay, 37 C; fit R^2 0.58
Experimental: as §1, §2

[29] = biological target: T3, MHC class I molecule HLA-B*0702 (iTopia …); assay: iTopia off-rate assay, 37 C; fit R^2 0.91
Experimental: as §1, §2

[30] = biological target: T2, MHC class I molecule HLA-A*0201 (iTopia …); assay: iTopia off-rate assay, 37 C; fit R^2 0.98
Experimental: as §1, §2

[31] = biological target: T3, MHC class I molecule HLA-B*0702 (iTopia …); assay: iTopia off-rate assay, 37 C; fit R^2 0.11
Experimental: as §1, §2

[32] = biological target: T2, MHC class I molecule HLA-A*0201 (iTopia …); assay: iTopia off-rate assay, 37 C; fit R^2 0.49
Experimental: as §1, §2

[33] = biological target: T4, MHC class I molecule HLA-A*0101 (iTopia …); assay: iTopia off-rate assay, 37 C; fit R^2 0.25
Experimental: as §1, §2

[34] = biological target: T2, MHC class I molecule HLA-A*0201 (iTopia …); assay: iTopia off-rate assay, 37 C; fit R^2 0.33
Experimental: as §1, §2

[35] = biological target: T3, MHC class I molecule HLA-B*0702 (iTopia …); assay: iTopia off-rate assay, 37 C; fit R^2 0.42
Experimental: as §1, §2

[36] = biological target: T3, MHC class I molecule HLA-B*0702 (iTopia …); assay: iTopia off-rate assay, 37 C; fit R^2 0.75
Experimental: as §1, §2

[37] = biological target: T1, MHC class I molecule HLA-A*0301 (iTopia …); assay: iTopia off-rate assay, 37 C; fit R^2 0.94
Experimental: as §1, §2

[38] = biological target: T3, MHC class I molecule HLA-B*0702 (iTopia …); assay: iTopia off-rate assay, 37 C; fit R^2 0.88
Experimental: as §1, §2

[39] = biological target: T2, MHC class I molecule HLA-A*0201 (iTopia …); assay: iTopia off-rate assay, 37 C; fit R^2 0.89
Experimental: as §1, §2

[40] = biological target: T3, MHC class I molecule HLA-B*0702 (iTopia …); assay: iTopia off-rate assay, 37 C; fit R^2 0.67
Experimental: as §1, §2

[41] = biological target: T2, MHC class I molecule HLA-A*0201 (iTopia …); assay: iTopia off-rate assay, 37 C; fit R^2 0.87
Experimental: as §1, §2

[42] = biological target: T3, MHC class I molecule HLA-B*0702 (iTopia …); assay: iTopia off-rate assay, 37 C; fit R^2 0.26
Experimental: as §1, §2

[43] = biological target: T2, MHC class I molecule HLA-A*0201 (iTopia …); assay: iTopia off-rate assay, 37 C; fit R^2 0.46
Experimental: as §1, §2

Binder: YLNRKGIKK (also called Peptide No 188) [5T4 9-mer peptide 188 YLNRKGIKK]
- t½ half life [1]: 42 min
- t½ half life [2]: 6.5 h
- t½ half life [3]: 3.3 h

Binder: IKKWMHNIR (also called Peptide No 191) [5T4 9-mer peptide 191 IKKWMHNIR]
- t½ half life [4]: 14.6 h

Binder: MHNIRDACR (also called Peptide No 193) [5T4 9-mer peptide 193 MHNIRDACR]
- t½ half life [5]: 5.3 h

Binder: RDACRDHME (also called Peptide No 195) [5T4 9-mer peptide 195 RDACRDHME]
- t½ half life [6]: 3 h

Binder: HMEGYHYRY (also called Peptide No 198) [5T4 9-mer peptide 198 HMEGYHYRY]
- t½ half life [7]: 6.3 h
- t½ half life [8]: 1.7 h
- t½ half life [9]: 1.3 h

Binder: ADPRLTNLS (also called Peptide No 204) [5T4 9-mer peptide 204 ADPRLTNLS]
- t½ half life [10]: 3.1 h

Binder: GGCSRGPAA (also called Peptide No 2) [5T4 9-mer peptide 2 GGCSRGPAA]
- t½ half life [11]: 1.3 h
- t½ half life [12]: 30 min

Binder: DGRLRLARL (also called Peptide No 7) [5T4 9-mer peptide 7 DGRLRLARL]
- t½ half life [13]: 2.6 h

Binder: RLRLARLAL (also called Peptide No 8) [5T4 9-mer peptide 8 RLRLARLAL]
- t½ half life [14]: 7.2 h
- t½ half life [15]: 3.1 h
- t½ half life [16]: 12 min

Binder: SPTSSASSF (also called Peptide No 17) [5T4 9-mer peptide 17 SPTSSASSF]
- t½ half life [17]: 2.6 h

Binder: SSFSSSAPF (also called Peptide No 20) [5T4 9-mer peptide 20 SSFSSSAPF]
- t½ half life [18]: 24 min

Binder: FSSSAPFLA (also called Peptide No 21) [5T4 9-mer peptide 21 FSSSAPFLA]
- t½ half life [19]: 12 min
- t½ half life [20]: 18 min

Binder: APFLASAVS (also called Peptide No 23) [5T4 9-mer peptide 23 APFLASAVS]
- t½ half life [21]: 2.6 h
- t½ half life [22]: 1.6 h

Binder: VPTDLPAYV (also called Peptide No 43) [5T4 9-mer peptide 43 VPTDLPAYV]
- t½ half life [23]: 1.8 h
- t½ half life [24]: 1.1 h

Binder: LAVLPAGAF (also called Peptide No 52) [5T4 9-mer peptide 52 LAVLPAGAF]
- t½ half life [25]: 3.6 h
- t½ half life [26]: 18 min

Binder: VLPAGAFAR (also called Peptide No 53) [5T4 9-mer peptide 53 VLPAGAFAR]
- t½ half life [27]: 2.2 h
- t½ half life [28]: 30 min

Binder: GAFARRPPL (also called Peptide No 55) [5T4 9-mer peptide 55 GAFARRPPL]
- t½ half life [29]: 1.3 h
- t½ half life [30]: 1.9 h

Binder: PPLAELAAL (also called Peptide No 58) [5T4 9-mer peptide 58 PPLAELAAL]
- t½ half life [31]: 3 h
- t½ half life [32]: 4.6 h

Binder: LAELAALNL (also called Peptide No 59) [5T4 9-mer peptide 59 LAELAALNL]
- t½ half life [33]: 2.5 h
- t½ half life [34]: 13.1 h
- t½ half life [35]: 3.2 h

Binder: RLDEVRAGA (also called Peptide No 65) [5T4 9-mer peptide 65 RLDEVRAGA]
- t½ half life [14]: 9.7 h
- t½ half life [36]: 12 min
- t½ half life [37]: 12 min

Binder: LPSLRQLDL (also called Peptide No 71) [5T4 9-mer peptide 71 LPSLRQLDL]
- t½ half life [38]: 3.1 h
- t½ half life [39]: 1.4 h

Binder: ASVSAPSPL (also called Peptide No 84) [5T4 9-mer peptide 84 ASVSAPSPL]
- t½ half life [40]: 6 min
- t½ half life [41]: 24 min

Binder: APSPLVELI (also called Peptide No 86) [5T4 9-mer peptide 86 APSPLVELI]
- t½ half life [42]: 1.6 h

Binder: ILNHIVPPE (also called Peptide No 90) [5T4 9-mer peptide 90 ILNHIVPPE]
- t½ half life [43]: 13 h
